Reference: patent US8092989B2, “Targeting the histone code as a bacterial strategy for selectively modulating gene expression” (Institut Pasteur, priority 2005, dated 2012)

Experiments:
[1] = test system: histone H3 phosphorylation at Ser 10 (H3 pS10); assay: H3 pS10 immunofluorescence in HeLa cells infected with the ospF strain, kinase inhibitors; type: cell-based; settings: 60 min pretreatment with both U0126 (10 μM) and SB203180 (2.5 μM), infection 30 min
Description: Indirect immunofluorescence detection was performed with anti-phospho-histone H3 S10 polyclonal antibody. […] Cells were left untreated (ns) or infected with the ospF strain for 30 min. IF was performed with anti-H3 methyl K9-pS10 antibody.
Indirect immunofluorescence. Cells were fixed with 3.7% paraformaldehyde in PBS for 10 min, permeabilized with 0.5% Triton-X in PBS. The following antibodies were used: anti-phospho-p42/p44 antibody (Sigma); anti-p42/p44, anti-phospho-histone H3 S10 (Upstate Cell Signaling), anti-acetyl histone H4 (Lys14) (Upstate Biotechnology) antibodies.

[2] = test system: histone H3 phosphorylation at Ser 10 (H3 pS10); assay: H3 pS10 induced by okadaic acid in HeLa cells overexpressing OspF; type: cell-based; settings: HeLa transfected with pRK5myc-OspF, 200 nM okadaic acid 3 hours
Description: (§1) (A) HeLa cells were left untreated (ns) or infected with the WT or the ospF strain at the indicated time. Indirect immunofluorescence detection was performed with anti-phospho-histone H3 S10 polyclonal antibody. (B) HeLa cells were synchronized by a double thymidine block (2 mM thymidine) and left untreated (ns) or infected with the WT or the ospF strain at the indicated time. Immunoblots were probed with anti-H3 phospho S10 (H3 pS10), anti-H3 methyl K9-phospho S10(H3 metK9-pS10), anti-H3 phospho S10. acetyl-K14 (H3 p-S10/Ac-K14), anti Histone H3 polyclonal anti-pp38 and pErk antibodies. (C) HeLa cells were transfected with pRK5myc-OspF vector and treated with 200 nM okadaic acid for 3 hours. IF was performed with anti-myc (red) and anti-H3 methyl K9-pS10 (green) antibodies. […] (D) One micogram of calf-thymus histone (Sigma) was incubated with 300 ng of His-OspF or with 120 U of λ phosphatase for 2 hours at 30° C. Western blot was performed with an anti-metK9-pS10 antibody. (E) One micogram of peptide metK9-S10 was spotted onto a nitrocellulose membrane that was incubated with buffers, 5 μg/ml of OspF, or 2000 U/ml of lambda phosphatase for 2 hours at 30° C. Western blot was performed with an anti-metK9-pS10 antibody. (F) HeLa cells were pretreated for 60 min with either the MEK1 inhibitor U0126 (10 μM) or the p38 inhibitor SB203180 (2.5 μM) or both. […]

NF-κB reporter construct = assay: TNF-α-induced NF-κB reporter construct in Caco 2 cells; type: cell-based, human; settings: overexpression in Caco 2 cells
Text: In addition to the classical MAPK-dependent target genes, OspF also repressed expression of some NF-κB-dependent chemokine genes such as IL-8. The IL-8 promoter contains an NF-κB binding site essential for expression of this gene (Hoffmann et al., 2002). Therefore, the inventors looked whether OspF interferes with the NF-κB signaling pathway. […] (FIG. 5E).

[3] = test system: histone H3 purified from calf thymus; assay: In vitro dephosphorylation of histone H3 / H3 tail peptides; type: biochemical; settings: 2 hours at 30° C., even when enzyme concentration increased 100 fold
Description: as §1

phospho JNK1 Histidine = molecular target: T1, phospho JNK1 Histidine (Homo sapiens, UniProt P45983); assay: In vitro phosphatase assay on phospho JNK1 (Western blot); type: biochemical; settings: purified phospho-MAP kinase, 50 nM
T1 construct: His

pErk2-GST = assay: In vitro phosphatase assay on phospho-Erk2 (Western blot); settings: purified protein, Western blot with anti phospho-Erk
phospho p38-GST = molecular target: T2, phospho p38-GST (Homo sapiens, UniProt Q16539); assay: In vitro phosphatase assay on phospho p38 (Western blot); type: biochemical; settings: purified phospho-MAP kinase, 50 nM
T2 construct: GST

^33P-labeled Erk2 = assay: 33P-labeled Erk2 phosphatase assay, steady state kinetics; settings: 100 nM phosphatase, pH 8, 30° C., 10 minutes, Michaelis-Menten fit
Description: Preparation of the ^33P-labeled Erk2 kinase substrate. The in vitro phosphorylation of the GST-Erk2 fusion protein was carried out by incubating 500 μg purified GST-Erk2 coupled to beads with 20 μg His6-tagged activated MEK1 (Upstate Cell Signaling) in a kinase buffer (50 mM Tris pH 7.5, 2 mM DTT, 10 mM MgCl2) with 100 μM ATP (γ-3P ATP, 3000 Ci/mmol) for 2 hours at 30° C. The beads were washed 5 times with 30 ml of 1× PBS and eluted in 50 mM Tris pH 8, 10 mM glutathione, and 10% glycerol. The fractions were dialyzed overnight to remove residual ATP in 50 mM Tris pH8, 50 mM NaCl, and 10% glycerol.
In vitro phosphatase assay. […] Therefore, the reaction was initiated by the addition of the phosphatase, incubated for 10 minutes at 30° C. and terminated by adding 200 μl cold 20% trichloroacetic acid. The samples were centrifuged at 10,000×g and 200 μl of the supernatant was mixed with 5 ml of scintillation fluid for taking radioactivity measurements. The product generated (inorganic phosphate) was kept below 5% of the initial substrate concentrations. Reactions containing the Erk2 substrate and buffer without phosphatase was used as a blank for each data point. The data were fitted to the Michaelis-Menten equation using the software Kaleidagraph.
The kinetic parameters were determined by following the production of radioactive inorganic phosphate.

IL-12 = assay: Murine model of pulmonary infection, lung cytokines by ELISA; type: in vivo, mice; settings: lungs infected with M90T or ospF strain, 24 hours post-infection (FIG. 10)
Description: The cytokine/chemokine network induced upon infection with Shigella flexneri was analyzed by comparing the profiles obtained upon infection with the invasive strain carrying the virulence plasmid (INV+) and the non-invasive, plasmidless strain (INV−). The murine model of pulmonary infection was used since it was the only valid model to analyze the specific host immune response upon Shigella infection. Following infection with INV−, a Th1 type-network (IL-12, IL-18, IFN-γ, CCL9, CCL10, CCL13, and CCL4) was induced. In contrast, a Th2/Tr1 profile (IL-10, CCL1, CCL24 and CCL2) was induced upon infection with INV+. The difference observed was not due to the bacterial dose used for the infection, but was dependent on the presence or absence of the virulence plasmid.
Some of these bacterial effectors are injected within the host cells by a type III secretion apparatus. Use of different bacterial mutants, has highlighted that the bacterial effectors involved in the immunomodulation were effectors secreted by the type III-secretion apparatus. Finally, OspF, a type III-secreted bacterial effector was responsible fore the control of IL-12 production (FIG. 10).

endogenous Erk = assay: Erk phosphorylation in transfected HeLa cells stimulated by PMA; settings: HeLa cells transfected with expression plasmid, PMA stimulation
p46 and p54 JNK kinases = assay: JNK phosphorylation in transfected HeLa cells stimulated by TNF; type: cell-based; settings: TNF stimulation
p38 MAP kinases = assay: p38 phosphorylation in transfected HeLa cells stimulated by TNF; type: cell-based; settings: TNF stimulation

T2 sequence (Q16539 whole entry): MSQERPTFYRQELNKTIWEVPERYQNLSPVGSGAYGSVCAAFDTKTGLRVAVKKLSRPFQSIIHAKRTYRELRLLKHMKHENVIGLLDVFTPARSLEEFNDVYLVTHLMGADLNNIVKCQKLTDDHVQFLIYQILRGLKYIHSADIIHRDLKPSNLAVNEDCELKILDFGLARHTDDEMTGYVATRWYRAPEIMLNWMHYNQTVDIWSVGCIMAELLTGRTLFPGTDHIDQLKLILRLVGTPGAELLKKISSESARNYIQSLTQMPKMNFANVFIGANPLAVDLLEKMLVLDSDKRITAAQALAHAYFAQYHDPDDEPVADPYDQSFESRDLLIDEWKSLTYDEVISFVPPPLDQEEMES
T1 sequence (P45983 whole entry): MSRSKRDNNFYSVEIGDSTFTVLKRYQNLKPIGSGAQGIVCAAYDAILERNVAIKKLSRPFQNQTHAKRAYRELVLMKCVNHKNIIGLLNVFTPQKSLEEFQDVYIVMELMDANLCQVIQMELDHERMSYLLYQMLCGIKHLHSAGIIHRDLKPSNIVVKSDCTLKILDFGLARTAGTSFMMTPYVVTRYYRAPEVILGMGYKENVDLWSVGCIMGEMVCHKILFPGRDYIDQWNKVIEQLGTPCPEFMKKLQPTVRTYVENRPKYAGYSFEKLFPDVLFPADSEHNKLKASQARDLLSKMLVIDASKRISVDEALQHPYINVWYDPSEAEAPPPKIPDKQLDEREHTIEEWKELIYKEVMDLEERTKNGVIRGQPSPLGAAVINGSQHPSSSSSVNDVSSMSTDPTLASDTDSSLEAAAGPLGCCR

In the case of `C[S+]([O-])c1ccc(-c2nc(-c3ccc(F)cc3)c(-c3ccncc3)[nH]2)cc1` (stereo not shown) [SB 203180], the “H3 pS10 signal induced by the ospF strain” value [1] is reported as “fully inhibited”.

For `N#CC(=C(/N)Sc1ccccc1N)/C(C#N)=C(\N)Sc1ccccc1N` [U0126], the “H3 pS10 signal induced by the ospF strain” value [1] was “fully inhibited”.

B1: OspF: protein encoded by the Shigella ospF gene, a dual specific phosphatase; NCBI Accession CAC05773 (protein)
chain: MPIKKPCLKLNLDSLNVVRSEIPQMLSANERLKNNFNILYNQIRQYPAYYFKVASNVPTYSDICQSFSVMYQGFQIVNHSGDVFIHACRENPQSKGDFVGDKFHISIAREQVPLAFQILSGLLFSEDSPIDKWKITDMNRVSQQSRVGIGAQFTLYVKSDQECSQYSALLLHKIRQFIMCLESNLLRSKIAPGEYPASDVRPEDWKYVSYRNELRSDRDGSERQEQMLREEPFYRLMIE
B1 was tested, and the “induction of H3 pS10 by okadaic acid” value [2] was “efficiently prevented induction”, the “TNF-α-induced activation of NF-κB reporter” value (NF-κB reporter construct) was “did not impair” and the “direct dephosphorylation of histone H3 (metK9-pS10 / pS10)” value [3] was “did not directly dephosphorylate”. For the same molecule, the “dephosphorylation of phospho JNK1” value (phospho JNK1 Histidine) was “failed to dephosphorylate”, the “dephosphorylation of phospho-Erk2” value (pErk2-GST) was “directly dephosphorylated” and the “dephosphorylation of phospho p38” value (phospho p38-GST) was “directly dephosphorylated”. For the same molecule, the “Vmax of Erk2 dephosphorylation” value (^33P-labeled Erk2) was 9.89 pM/s, the “kcat of Erk2 dephosphorylation” value (^33P-labeled Erk2) was 0.0001 s⁻¹ and the Km (^33P-labeled Erk2; read-out: Km of Erk2 dephosphorylation) was 0.204 µM. For the same molecule, the “IL-12 production in vivo” value (IL-12) was “down regulated”.

B2: MKP1: known mammalian dual specific phosphatase used as a control (protein, UniProt P28562 1-367, looked up)
Dual specificity protein …: MVMEVGTLDAGGLRALLGERAAQCLLLDCRSFFAFNAGHIAGSVNVRFSTIVRRRAKGAMGLEHIVPNAELRGRLLAGAYHAVVLLDERSAALDGAKRDGTLALAAGALCREARAAQVFFLKGGYEAFSASCPELCSKQSTPMGLSLPLSTSVPDSAESGCSSCSTPLYDQGGPVEILPFLYLGSAYHASRKDMLDALGITALINVSANCPNHFEGHYQYKSIPVEDNHKADISSWFNEAIDFIDSIKNAGGRVFVHCQAGISRSATICLAYLMRTNRVKLDEAFEFVKQRRSIISPNFSFMGQLLQFESQVLAPHCSAEAGSPAMAVLDRGTSTTTVFNFPVSIPVHSTNSALSYLQSPITTSPSC
For B2, the “kcat of Erk2 dephosphorylation” value (^33P-labeled Erk2) was 0.0006 s⁻¹.

B3: myc-labelled OspF: OspF with a myc label expressed from plasmid pRK5myc-OspF (protein)
chain: B1 chain
modifications: left off: small tags and cut ends
With B3 the “effect on Erk phosphorylation / ability to dephosphorylate Erk in cells” value (endogenous Erk) was “prevented phosphorylation”, the “effect on JNK phosphorylation in cells” value (p46 and p54 JNK kinases) was “not” and the “effect on p38 phosphorylation in cells” value (p38 MAP kinases) was “prevented phosphorylation”.
